1 substance from US20260070961A1 can be followed below.

Assay [1] has as its target DENV-3 VLP (Dengue virus serotype 3). The assay can be described thus: BLI (Octet-HTX), IgG captured on Protein A biosensor, 5 ug/mL DENV-VLP. On the technique in general: In BLI a coated tip is dipped into the sample, and binding shifts an interference pattern.
Assay [2] has the same target. Nature of the assay: BLI (Octet-HTX), IgG captured on Protein A biosensor, 5 ug/mL DENV-VLP, 1:1 model.

By koff is commonly meant the first-order rate constant of dissociation. The low end stands for slow dissociation, the high end for fast dissociation. The substance 4G2 (antibody) returned a response in assay [1] of 0.316. For the same substance, the off-rate (koff) in assay [2] was found to be 0.000345 s⁻¹.
